Bridge positions count the residues as written; N and C are the ends. Square brackets hold non-standard residues; d marks the D form. Ends that are not written are not given here. NMeA = CN[C@@H](C)C(=O)O; Sar = CNCC(=O)O
Tests used:
[1] = molecular target: T1, human collagen type I, acid soluble, extracted from placenta (Sigma C7774) (human, UniProt P02452 162-1218; P08123 80-1119); assay: dried collagen assay
T1 construct: tissue extract, gelled and dried in wells; also called dried human collagen; h-Collagen
Experimental: (§1) An additional 90 μL is reserved in a HPLC glass vial as a measure of the total concentration.

[2] = molecular target: T2, rat collagen, acid soluble, type I, rat tail (Upstate 08-115) (rat, UniProt P02454 152-1207; P02466 86-1125); assay: dried collagen assay
T2 construct: tissue extract, gelled and dried in wells; also called dried rat collagen
Experimental: as §1

T1 sequence (P02452 162-1218 limits assumed, chain 1 of 2): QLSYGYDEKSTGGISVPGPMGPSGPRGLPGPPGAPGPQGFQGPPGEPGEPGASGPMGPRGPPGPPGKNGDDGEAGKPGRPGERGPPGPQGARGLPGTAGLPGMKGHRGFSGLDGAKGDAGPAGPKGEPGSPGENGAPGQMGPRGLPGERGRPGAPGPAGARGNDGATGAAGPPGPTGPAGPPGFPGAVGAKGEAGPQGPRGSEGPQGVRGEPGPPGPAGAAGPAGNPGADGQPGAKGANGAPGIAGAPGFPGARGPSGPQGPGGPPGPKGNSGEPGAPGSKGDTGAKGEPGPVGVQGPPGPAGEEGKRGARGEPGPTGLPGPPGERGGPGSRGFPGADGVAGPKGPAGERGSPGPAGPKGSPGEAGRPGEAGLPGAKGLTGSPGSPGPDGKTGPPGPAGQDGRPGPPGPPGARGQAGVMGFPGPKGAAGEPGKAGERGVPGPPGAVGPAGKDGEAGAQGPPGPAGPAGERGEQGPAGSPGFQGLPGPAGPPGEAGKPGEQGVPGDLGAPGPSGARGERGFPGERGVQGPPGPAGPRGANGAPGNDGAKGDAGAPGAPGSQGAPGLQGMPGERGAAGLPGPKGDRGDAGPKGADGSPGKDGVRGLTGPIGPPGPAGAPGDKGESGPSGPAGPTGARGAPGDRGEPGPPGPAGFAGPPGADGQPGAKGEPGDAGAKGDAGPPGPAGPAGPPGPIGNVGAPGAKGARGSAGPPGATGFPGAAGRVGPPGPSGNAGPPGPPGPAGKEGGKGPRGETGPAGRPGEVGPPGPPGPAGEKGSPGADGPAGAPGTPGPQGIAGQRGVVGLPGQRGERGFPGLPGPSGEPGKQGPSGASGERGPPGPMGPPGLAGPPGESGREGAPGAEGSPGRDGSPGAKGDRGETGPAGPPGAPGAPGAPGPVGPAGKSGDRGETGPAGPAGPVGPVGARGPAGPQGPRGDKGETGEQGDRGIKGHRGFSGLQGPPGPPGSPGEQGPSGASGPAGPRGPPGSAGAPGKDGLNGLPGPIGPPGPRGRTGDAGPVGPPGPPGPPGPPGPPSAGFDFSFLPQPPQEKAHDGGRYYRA
T1 sequence (P08123 80-1119 limits assumed, chain 2 of 2): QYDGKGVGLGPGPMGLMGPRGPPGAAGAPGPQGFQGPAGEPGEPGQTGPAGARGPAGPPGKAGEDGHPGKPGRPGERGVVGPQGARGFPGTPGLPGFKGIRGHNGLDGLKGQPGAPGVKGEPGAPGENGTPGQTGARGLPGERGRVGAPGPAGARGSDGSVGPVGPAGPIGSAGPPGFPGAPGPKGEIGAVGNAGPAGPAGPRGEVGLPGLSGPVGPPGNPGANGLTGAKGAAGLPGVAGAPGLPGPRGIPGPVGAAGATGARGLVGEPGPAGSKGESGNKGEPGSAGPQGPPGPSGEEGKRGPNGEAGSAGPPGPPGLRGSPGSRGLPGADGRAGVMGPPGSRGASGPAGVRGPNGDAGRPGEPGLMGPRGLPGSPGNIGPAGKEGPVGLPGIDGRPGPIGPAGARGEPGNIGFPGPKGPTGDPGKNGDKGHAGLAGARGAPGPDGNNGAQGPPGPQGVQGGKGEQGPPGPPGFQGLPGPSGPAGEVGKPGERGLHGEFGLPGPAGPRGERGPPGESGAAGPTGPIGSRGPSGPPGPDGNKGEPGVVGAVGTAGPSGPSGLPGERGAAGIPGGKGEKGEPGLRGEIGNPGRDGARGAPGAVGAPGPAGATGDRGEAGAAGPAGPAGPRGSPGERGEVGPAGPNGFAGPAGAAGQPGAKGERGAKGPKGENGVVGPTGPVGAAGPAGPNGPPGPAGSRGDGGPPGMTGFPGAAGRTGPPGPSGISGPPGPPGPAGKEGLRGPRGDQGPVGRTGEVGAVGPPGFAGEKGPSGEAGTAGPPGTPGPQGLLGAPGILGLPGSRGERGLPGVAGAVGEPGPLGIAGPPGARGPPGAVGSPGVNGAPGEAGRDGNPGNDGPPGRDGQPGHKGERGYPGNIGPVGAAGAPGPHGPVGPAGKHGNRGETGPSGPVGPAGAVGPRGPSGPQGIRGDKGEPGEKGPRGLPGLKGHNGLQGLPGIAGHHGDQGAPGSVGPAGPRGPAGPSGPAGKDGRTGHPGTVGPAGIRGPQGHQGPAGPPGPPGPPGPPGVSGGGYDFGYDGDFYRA
T2 sequence (P02454 152-1207, chain 1 of 2): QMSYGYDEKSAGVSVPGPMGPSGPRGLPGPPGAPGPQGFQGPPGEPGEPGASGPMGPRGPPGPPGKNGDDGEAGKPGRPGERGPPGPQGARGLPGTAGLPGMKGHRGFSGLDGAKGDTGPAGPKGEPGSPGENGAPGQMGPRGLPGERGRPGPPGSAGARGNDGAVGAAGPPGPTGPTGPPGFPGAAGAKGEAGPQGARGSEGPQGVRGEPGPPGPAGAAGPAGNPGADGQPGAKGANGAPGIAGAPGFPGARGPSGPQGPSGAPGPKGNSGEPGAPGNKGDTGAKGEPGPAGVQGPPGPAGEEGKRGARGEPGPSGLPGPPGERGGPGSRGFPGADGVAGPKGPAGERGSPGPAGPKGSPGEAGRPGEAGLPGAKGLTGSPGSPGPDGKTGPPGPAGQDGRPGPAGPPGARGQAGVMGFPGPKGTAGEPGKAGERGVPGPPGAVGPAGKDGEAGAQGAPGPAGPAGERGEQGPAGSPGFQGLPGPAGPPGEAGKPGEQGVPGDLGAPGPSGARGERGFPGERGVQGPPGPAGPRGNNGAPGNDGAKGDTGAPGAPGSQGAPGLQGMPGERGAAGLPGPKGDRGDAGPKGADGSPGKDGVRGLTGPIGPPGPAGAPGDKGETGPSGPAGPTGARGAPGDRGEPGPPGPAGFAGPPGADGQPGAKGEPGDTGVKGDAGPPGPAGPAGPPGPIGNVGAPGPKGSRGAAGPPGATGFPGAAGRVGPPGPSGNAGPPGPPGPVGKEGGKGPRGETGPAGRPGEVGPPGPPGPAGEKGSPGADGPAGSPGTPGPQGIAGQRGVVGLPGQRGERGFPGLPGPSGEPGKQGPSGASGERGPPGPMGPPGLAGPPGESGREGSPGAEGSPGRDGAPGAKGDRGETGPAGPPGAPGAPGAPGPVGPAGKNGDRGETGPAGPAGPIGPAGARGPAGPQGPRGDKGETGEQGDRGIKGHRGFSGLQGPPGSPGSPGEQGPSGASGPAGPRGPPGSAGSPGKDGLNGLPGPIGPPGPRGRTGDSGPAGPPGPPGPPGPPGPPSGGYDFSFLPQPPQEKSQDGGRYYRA
T2 sequence (P02466 86-1125, chain 2 of 2): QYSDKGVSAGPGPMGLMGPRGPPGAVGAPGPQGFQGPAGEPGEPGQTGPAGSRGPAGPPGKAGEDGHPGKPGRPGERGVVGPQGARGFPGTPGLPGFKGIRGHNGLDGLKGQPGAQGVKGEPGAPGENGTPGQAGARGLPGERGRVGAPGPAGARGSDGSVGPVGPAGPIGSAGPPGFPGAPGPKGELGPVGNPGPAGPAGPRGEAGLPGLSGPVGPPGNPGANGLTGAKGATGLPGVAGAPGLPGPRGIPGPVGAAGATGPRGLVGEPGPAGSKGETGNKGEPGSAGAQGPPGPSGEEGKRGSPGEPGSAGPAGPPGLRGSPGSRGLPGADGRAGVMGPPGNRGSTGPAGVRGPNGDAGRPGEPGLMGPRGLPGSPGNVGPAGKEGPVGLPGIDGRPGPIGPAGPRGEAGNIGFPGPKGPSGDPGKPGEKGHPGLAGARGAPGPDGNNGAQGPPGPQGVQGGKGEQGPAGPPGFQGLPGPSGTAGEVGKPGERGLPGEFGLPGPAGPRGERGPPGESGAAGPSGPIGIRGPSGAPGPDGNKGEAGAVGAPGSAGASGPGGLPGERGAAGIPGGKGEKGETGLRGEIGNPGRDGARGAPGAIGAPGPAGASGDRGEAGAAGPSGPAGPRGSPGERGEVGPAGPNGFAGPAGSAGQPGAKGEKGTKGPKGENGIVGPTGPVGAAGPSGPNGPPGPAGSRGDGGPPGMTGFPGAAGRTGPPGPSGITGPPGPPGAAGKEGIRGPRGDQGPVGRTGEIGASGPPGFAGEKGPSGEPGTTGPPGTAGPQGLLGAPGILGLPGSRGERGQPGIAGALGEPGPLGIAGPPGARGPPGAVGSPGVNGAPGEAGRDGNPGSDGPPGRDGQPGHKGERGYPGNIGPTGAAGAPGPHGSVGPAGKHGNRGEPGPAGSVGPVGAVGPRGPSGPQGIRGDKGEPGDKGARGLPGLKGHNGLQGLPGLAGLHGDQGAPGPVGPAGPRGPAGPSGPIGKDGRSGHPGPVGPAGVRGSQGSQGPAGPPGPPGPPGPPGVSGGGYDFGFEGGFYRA

% bound [1]	% bound [2]	Binder
1%	–	KWHCELDSHMEWSCSGH (disulfide 4-14 (inferred), cyclic, disulfide) [SEQ ID NO 89]
8%	–	FWTCELDFRQSWYCYDK (disulfide 4-14 (inferred), cyclic, disulfide) [SEQ ID NO 79]
–	0%	QWTCSGDEYTW[dH]CNYE (disulfide 4-13 (inferred); not fully specified (N-terminus); printed as QWTCSGDEYTWhCNYE, cyclic, disulfide) [SEQ ID NO 174]
34%	–	TWACGWTTTGWDNCRWI (disulfide 4-14 (inferred), cyclic, disulfide) [SEQ ID NO 90]
28%	–	TWACGWTTAGWDNCRWI (disulfide 4-14 (inferred), cyclic, disulfide) [SEQ ID NO 91]
10%	–	HWQCRLTDYGWNCDER (disulfide 4-13 (inferred), cyclic, disulfide) [SEQ ID NO 59]
9%	23%	YHACYQ[NMeA]GCWIW (disulfide 4-9 (inferred), cyclic, disulfide; also called YHACYQA'GCWIW) [SEQ ID NO 105]
34%	–	TWACGWTTTGWDNCRWI (disulfide 4-14 (inferred), cyclic, disulfide) [SEQ ID NO 92]
10%	–	ERNCVLNDFRWTCGGD (disulfide 4-13 (inferred), cyclic, disulfide) [SEQ ID NO 75]
12%	–	MWNCTMTKSGWRCFEK (disulfide 4-13 (inferred), cyclic, disulfide) [SEQ ID NO 54]
19%	14%	WTCSGDEYTWHCNYE (disulfide 3-12 (inferred), cyclic, disulfide) [SEQ ID NO 114]
–	27%	YHACYQAG[dC]WIW (disulfide 4-9 (inferred); not fully specified (C-terminus); printed as YHACYQAGcWIW, cyclic, disulfide) [SEQ ID NO 159]
3%	–	FWRCALLDGHWQCTDH (disulfide 4-13 (inferred), cyclic, disulfide) [SEQ ID NO 70]
9%	–	KWSCYMVDHQWYCREF (disulfide 4-13 (inferred), cyclic, disulfide) [SEQ ID NO 61]
21%	37%	YSACYQAGCWIW (disulfide 4-9 (inferred), cyclic, disulfide) [SEQ ID NO 109]
7%	12%	AHACYQAGCWIW (disulfide 4-9 (inferred), cyclic, disulfide) [SEQ ID NO 131]
72%	88%	YHACYQAACWIW (disulfide 4-9 (inferred), cyclic, disulfide) [SEQ ID NO 135]
14%	1%	YHACYAAGCWIW (disulfide 4-9 (inferred), cyclic, disulfide) [SEQ ID NO 134]
2%	1%	YHACYQAGCWIA (disulfide 4-9 (inferred), cyclic, disulfide) [SEQ ID NO 138]
1%	–	HWTCDQAKGGAWSCSST (disulfide 4-14 (inferred), cyclic, disulfide) [SEQ ID NO 87]
71%	71%	GQWTCSGDEYTWHCNYE (disulfide 5-14 (inferred), cyclic, disulfide) [SEQ ID NO 122]
39%	23%	DWTCSGDPYTWHCNYE (disulfide 4-13 (inferred), cyclic, disulfide) [SEQ ID NO 115]
55%	55%	DWTCSGDEFTWHCNYE (disulfide 4-13 (inferred), cyclic, disulfide) [SEQ ID NO 119]
38%	28%	DWTCSGDEYAWHCNY[dE] (disulfide 4-13 (inferred), cyclic, disulfide) [SEQ ID NO 120]
–	1%	GQWTCSGDEYTAHCNYE (disulfide 5-14 (inferred); not fully specified (C-terminus), cyclic, disulfide) [SEQ ID NO 147]
45%	–	TWMCVDPPLWRCWVQ (disulfide 4-12 (inferred), cyclic, disulfide) [SEQ ID NO 4]

% bound [1]	% bound [2]	Binder
8%	–	NWYCSQALDNWSCKLR (disulfide 4-13 (inferred), cyclic, disulfide) [SEQ ID NO 63]
0%	24%	YHASYQAGSWIW (printed without cysteines (S for C)) [SEQ ID NO 111]
12%	19%	YHACYQA[Sar]CWIW (disulfide 4-9 (inferred), cyclic, disulfide) [SEQ ID NO 104]
9%	24%	YHACYQAGCWIY (disulfide 4-9 (inferred), cyclic, disulfide) [SEQ ID NO 106]
–	12%	YHACYQAGCYIY (disulfide 4-9 (inferred), cyclic, disulfide) [SEQ ID NO 108]
2%	2%	YHACYQAGCAIW (disulfide 4-9 (inferred), cyclic, disulfide) [SEQ ID NO 136]
53%	37%	YAACYQAGCWIW (disulfide 4-9 (inferred), cyclic, disulfide) [SEQ ID NO 132]
10%	2%	YSACYQAGCYIY (disulfide 4-9 (inferred), cyclic, disulfide) [SEQ ID NO 110]
1%	–	EWHCVFIQGDWLCNSG (disulfide 4-13 (inferred), cyclic, disulfide) [SEQ ID NO 72]
12%	–	GWFCKLVDGNWECSTK (disulfide 4-13 (inferred), cyclic, disulfide) [SEQ ID NO 53]
12%	–	SWNCHWRNQGWLCSGG (disulfide 4-13 (inferred), cyclic, disulfide) [SEQ ID NO 55]
9%	–	HWSCYLGDNGWNCHDR (disulfide 4-13 (inferred), cyclic, disulfide) [SEQ ID NO 62]
1%	–	FWTCMRDQVGEWHCGTE (disulfide 4-14 (inferred), cyclic, disulfide) [SEQ ID NO 88]
12%	–	GWQCQGTDSLDWKCLYM (disulfide 4-14 (inferred), cyclic, disulfide) [SEQ ID NO 77]
3%	–	SWHCALMGSRWVCGQN (disulfide 4-13 (inferred), cyclic, disulfide) [SEQ ID NO 71]
11%	–	RWTCDLQRGDWQCSTI (disulfide 4-13 (inferred), cyclic, disulfide) [SEQ ID NO 57]
11%	–	SWNCHMIRNEWRCTGH (disulfide 4-13 (inferred), cyclic, disulfide) [SEQ ID NO 56]
8%	–	TWACDLDEYGGWQCYTG (disulfide 4-14 (inferred), cyclic, disulfide) [SEQ ID NO 78]
3%	–	HWQCGEKMSFWSCELV (disulfide 4-13 (inferred), cyclic, disulfide) [SEQ ID NO 69]
10%	–	EWHCVLNDFRWTCGGD (disulfide 4-13 (inferred), cyclic, disulfide) [SEQ ID NO 60]
–	0%	QWT[dC]SGDEYTWHCNYE (disulfide 4-13 (inferred); not fully specified (N-terminus, C-terminus); printed as QWTcSGDEYTWHCNYE, cyclic, disulfide) [SEQ ID NO 167]
10%	–	GWVCMMRETDWNCSI (disulfide 4-13 (inferred), cyclic, disulfide) [SEQ ID NO 58]
1%	–	FGACDIFPTFHTCPGV (disulfide 4-13 (inferred), cyclic, disulfide) [SEQ ID NO 76]
1%	–	SWHCALVENSWQCSEA (disulfide 4-13 (inferred), cyclic, disulfide) [SEQ ID NO 73]
2%	–	SWYCDWDDRKGWMCGSD (disulfide 4-14 (inferred), cyclic, disulfide) [SEQ ID NO 86]
8%	–	TWICSHNDKGWTCGDQ (disulfide 4-13 (inferred), cyclic, disulfide) [SEQ ID NO 64]

From patent US20080044360A1 (COLLAGEN MEDICAL, published 2008)
